Assay results: the supplement of paper PMC7877785
± gives the uncertainty stated by the source.

Assay: self-splicing fitness, log relative to wild type (ln ratio); higher = more splicing; Tetrahymena group I intron in knt gene, E. coli kanamycin selection, DiMSum; sequences stand for … in CUCUCU…GGAGGGAAAAGUUAUCAGGCAUGCACCUGGUAGCUAGUCUUUAAACCAAUAGAUUGCAUCGGUUUAAAAGGCAAGACCGUCAAAUUGCGGGAAAGGGGUCAACAGCCGUUCAGUACCAAGUCUCAGGGGAAACUUUGAGAUGGCCUUGCAAAGGGUAUGGUAAUAAGCUGACGGACAUGGUCCUAACCACGCAGCCAAGUCCUAAGUCAACAGAUCUUCUGUUGAUAUGGAUGCAGUUCACAGACUAAAUGUCGGUCGGGGAAGAUGUAUUCUUCUCAUAAGAUAUAGUCGGACCUCUCCUUAAUGGGAGCUAGCGGAUGAAGUGAUGCAACACUGGAGCCGCUGGGAACUAAUUUGUAUGCGAAAGUAUAUUGAUUAGUUUUGGAGUACUCGUGGUCG
Summary of the method: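 A randomised library covering all eight P1ex-region intron nucleotides was built with the intron in the knt kanamycin-resistance gene on pET-22b(+) and held in E. coli BL21(DE3). Cells were grown overnight at 37°C or 30°C on LB agar, with or without 25 μg/mL kanamycin, plus 100 μg/mL carbenicillin, 50 μM IPTG and 0.2% rhamnose, and pooled colonies were amplicon-sequenced on an Illumina HiSeq 2500. DiMSum fitness is the error-weighted combination of wild-type-normalised replicate fold changes, kanamycin versus none.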

Sequence	self-splicing fitness (ln) (30 °C)	self-splicing fitness (ln) (37 °C)
UGCAAGCAAUAUUACGUAGC	-3.54 ± 0.37	-2.48 ± 0.41
CUGCAGCAAUAUUACGUUCC	–	-1.74 ± 0.35
CGAUAGCAAUAUUACGUAAU	-2.55 ± 0.15	-1.92 ± 0.15
CAUUAGCAAUAUUACGGAAG	-0.396 ± 0.1	-0.104 ± 0.12
CACGAGCAAUAUUACGAAGU	-1.68 ± 0.13	-2.23 ± 0.19
CCCUAGCAAUAUUACGCAUC	-3.26 ± 0.25	-2 ± 0.2
AUGCAGCAAUAUUACGAUUC	-2.72 ± 0.14	-0.939 ± 0.17
UCGAAGCAAUAUUACGUGAU	-2.71 ± 0.16	-1.37 ± 0.17
ACGUAGCAAUAUUACGUAUU	-3.93 ± 0.17	-2.48 ± 0.15
ACAAAGCAAUAUUACGUGAA	-1.51 ± 0.074	-1.5 ± 0.083
CACCAGCAAUAUUACGAAUA	-3.93 ± 0.21	-2.62 ± 0.16
UCCAAGCAAUAUUACGUAUC	-4.43 ± 0.27	-1.93 ± 0.16
CAUAAGCAAUAUUACGGGUG	-2.3 ± 0.08	-1.17 ± 0.078
ACGGAGCAAUAUUACGUAUC	-2.75 ± 0.2	-2.52 ± 0.29
CUACAGCAAUAUUACGCGGG	-2.27 ± 0.094	-2.56 ± 0.12
AGCGAGCAAUAUUACGGCUU	-2.59 ± 0.12	-2.02 ± 0.21
AAGAAGCAAUAUUACGUACA	-0.642 ± 0.1	-0.0821 ± 0.12
CUAAAGCAAUAUUACGCAUU	-4.21 ± 0.21	-1.51 ± 0.14
CCACAGCAAUAUUACGUUAA	-3.12 ± 0.14	-2.48 ± 0.14
ACUUAGCAAUAUUACGGCUG	-1.32 ± 0.062	-0.174 ± 0.082
AGAGAGCAAUAUUACGUCCG	–	-1.63 ± 0.33
GCAGAGCAAUAUUACGUUAC	-2.97 ± 0.16	-1.38 ± 0.17
UCACAGCAAUAUUACGAUGG	-1.52 ± 0.06	-0.512 ± 0.081
CUUCAGCAAUAUUACGAAUU	-2.66 ± 0.19	-0.66 ± 0.13
GUCAAGCAAUAUUACGGCAA	-2.06 ± 0.15	-1.01 ± 0.094
CAUCAGCAAUAUUACGCCGU	-2.51 ± 0.11	-1.13 ± 0.15

Sequence	self-splicing fitness (ln) (30 °C)	self-splicing fitness (ln) (37 °C)
GUACAGCAAUAUUACGGGUC	-4.33 ± 0.31	-2.79 ± 0.33
GUCUAGCAAUAUUACGUAGG	-0.837 ± 0.14	-0.942 ± 0.21
GACCAGCAAUAUUACGCUUG	-0.638 ± 0.089	-0.56 ± 0.11
CUAUAGCAAUAUUACGGGCU	-2.63 ± 0.19	-3.38 ± 0.39
UGUAAGCAAUAUUACGGCCC	-2.98 ± 0.38	–
CAACAGCAAUAUUACGGUGG	-2.15 ± 0.083	-0.724 ± 0.082
CGACAGCAAUAUUACGCCAU	-3.77 ± 0.3	-1.51 ± 0.32
UAGUAGCAAUAUUACGUUCU	-1.88 ± 0.12	-0.844 ± 0.098
AAAGAGCAAUAUUACGAGCA	-2.83 ± 0.39	-2.26 ± 0.42
UAGCAGCAAUAUUACGGUUU	-0.986 ± 0.051	-0.354 ± 0.067
AAGCAGCAAUAUUACGGCCU	-0.182 ± 0.057	0.636 ± 0.074
GUUAAGCAAUAUUACGAUAG	–	-2.07 ± 0.34
CAUGAGCAAUAUUACGUUCA	-3.67 ± 0.26	-2.29 ± 0.17
ACGUAGCAAUAUUACGCCUC	-2.48 ± 0.38	-2.16 ± 0.41
GGAGAGCAAUAUUACGGUGA	-2.27 ± 0.2	-1.46 ± 0.21
AGUUAGCAAUAUUACGCAAA	–	-1.57 ± 0.29
ACACAGCAAUAUUACGCAUU	-2.47 ± 0.081	-1.5 ± 0.087
CCCGAGCAAUAUUACGUAUC	-1.94 ± 0.17	-3.67 ± 0.36
AAGGAGCAAUAUUACGCGAG	-2.86 ± 0.19	-2.23 ± 0.19
AGUAAGCAAUAUUACGGAGA	-3.47 ± 0.32	-2.44 ± 0.42
GUAGAGCAAUAUUACGUCCA	-2.45 ± 0.28	-0.739 ± 0.34
UAAUAGCAAUAUUACGCGUC	-2.88 ± 0.36	-2 ± 0.38
CUCCAGCAAUAUUACGUUGU	-4.22 ± 0.15	-3.49 ± 0.21
UCGGAGCAAUAUUACGGCGC	-2.09 ± 0.31	–
CUGAAGCAAUAUUACGGCAU	-2.91 ± 0.12	-3.52 ± 0.31
UAUAAGCAAUAUUACGCAGC	-2.5 ± 0.23	-2.43 ± 0.3

Sequence	self-splicing fitness (ln) (30 °C)	self-splicing fitness (ln) (37 °C)
CGUCAGCAAUAUUACGUGAC	-3.29 ± 0.18	-2.82 ± 0.23
CGUCAGCAAUAUUACGUGGG	-2.31 ± 0.093	-1.7 ± 0.1
CGGUAGCAAUAUUACGUACC	-3.27 ± 0.4	-1.89 ± 0.3
AGUCAGCAAUAUUACGGGAA	-2.12 ± 0.17	-2.4 ± 0.22
AGGGAGCAAUAUUACGACCG	-1.92 ± 0.35	-0.586 ± 0.33
CCUUAGCAAUAUUACGCCUA	-2.69 ± 0.48	-1.4 ± 0.35
GGCCAGCAAUAUUACGCCUA	-1.05 ± 0.15	-1.05 ± 0.15
UUGUAGCAAUAUUACGCAUC	-3.41 ± 0.34	-3.19 ± 0.43
GACUAGCAAUAUUACGAGAG	-3.75 ± 0.18	-2.28 ± 0.14
UAGAAGCAAUAUUACGAACU	-1.79 ± 0.14	0.0205 ± 0.13
GUGCAGCAAUAUUACGGUGU	-3.08 ± 0.11	-1.74 ± 0.12
CGAGAGCAAUAUUACGAUAG	-2.68 ± 0.18	-2.11 ± 0.18
ACCAAGCAAUAUUACGAAUU	-3.46 ± 0.17	-2.13 ± 0.14
UAUCAGCAAUAUUACGGUUA	-0.0611 ± 0.064	0.0198 ± 0.07
UGUCAGCAAUAUUACGAAGU	-4.02 ± 0.46	-1.93 ± 0.24
CUGGAGCAAUAUUACGUUAG	-1.65 ± 0.068	-1.51 ± 0.098
AUAUAGCAAUAUUACGAGUC	-2.97 ± 0.34	-2.63 ± 0.45
UUAUAGCAAUAUUACGCGGA	-1.6 ± 0.12	-0.96 ± 0.14
UGAGAGCAAUAUUACGUCGA	-2.82 ± 0.39	-3.1 ± 0.47
AACAAGCAAUAUUACGCGUA	-1.13 ± 0.067	-0.921 ± 0.078
AAGUAGCAAUAUUACGGCCA	-0.679 ± 0.095	0.256 ± 0.11
CUGCAGCAAUAUUACGAAAU	-3.51 ± 0.37	-1.62 ± 0.18
ACCUAGCAAUAUUACGGCAU	-0.00618 ± 0.076	0.451 ± 0.09
GGGUAGCAAUAUUACGUUCA	0.0201 ± 0.096	-0.0805 ± 0.12
AGCGAGCAAUAUUACGAGUA	-1.68 ± 0.26	-1.18 ± 0.29
UGGCAGCAAUAUUACGGAUG	-1.79 ± 0.17	-0.817 ± 0.19
